Measured values: publication PMC8451032

Biological target: m971 scFv with short (GGGGS) linker
Assay: SEC

stoichiometry N: 2
Substance: m971 scFv with short (GGGGS) linker
